Measurements taken from patent publication US20190183976A1.
One block for each substance: values may come before it.

How the values were obtained:
[1] = biological target: CXCR4 (human) (UniProt P61073); assay: cell-based or functional assay
[2] = biological target: CXCR4-VN (human) (UniProt P61073); assay: BiFC, U-2 OS cells, CXCR4-VN & GPCRx-VC; score=(positive cells/total cells)x100
Chain of CXCR4-VN (human) (P61073 whole entry): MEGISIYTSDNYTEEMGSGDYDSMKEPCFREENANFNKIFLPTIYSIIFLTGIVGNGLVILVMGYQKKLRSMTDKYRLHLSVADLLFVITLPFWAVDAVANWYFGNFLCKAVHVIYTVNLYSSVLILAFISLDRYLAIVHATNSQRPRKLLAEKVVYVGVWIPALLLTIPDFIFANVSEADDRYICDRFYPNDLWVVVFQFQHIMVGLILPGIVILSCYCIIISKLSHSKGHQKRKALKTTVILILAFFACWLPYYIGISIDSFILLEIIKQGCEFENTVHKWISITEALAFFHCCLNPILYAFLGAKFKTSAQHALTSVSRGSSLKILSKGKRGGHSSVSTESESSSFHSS

Chain of CXCR4 (human) (P61073 whole entry): as above
Chain of CCR5-VC, P51681 1-352 (receptor; other documents disagree on this pair) (P51681 whole entry): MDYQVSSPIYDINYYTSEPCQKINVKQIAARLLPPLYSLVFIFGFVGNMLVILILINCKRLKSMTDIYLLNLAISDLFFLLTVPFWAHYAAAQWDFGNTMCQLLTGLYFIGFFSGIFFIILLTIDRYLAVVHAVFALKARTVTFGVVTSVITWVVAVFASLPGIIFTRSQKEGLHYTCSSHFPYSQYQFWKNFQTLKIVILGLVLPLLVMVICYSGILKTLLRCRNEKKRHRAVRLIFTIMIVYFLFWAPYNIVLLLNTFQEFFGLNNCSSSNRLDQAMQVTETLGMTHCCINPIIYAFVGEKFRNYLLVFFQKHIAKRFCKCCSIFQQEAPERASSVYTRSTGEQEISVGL

IC50 of Ca2+ response; MDA-MB-231 with CXCR4+ADCYAP1R1; CXCL12 20 nM + PACAP-38 1 nM; + M65 1 µM [1]: 7.46 nM
IC50 of Ca2+ response; MDA-MB-231 with CXCR4+ADCYAP1R1; CXCL12 20 nM + PACAP-38 1 nM; + PACAP-(6-38) 1 µM [1]: 19.6 nM
IC50 of Ca2+ response; MDA-MB-231 with CXCR4+ADCYAP1R1; CXCL12 20 nM + PACAP-38 1 nM; no ADCYAP1R1 inhibitor [1]: 213 nM
IC50 of Ca2+ response; MDA-MB-231 with CXCR4+C5AR1; CXCL12 20 nM + C5a 0.03 nM; + W54011 10 µM [1]: 9.72 nM
IC50 of Ca2+ response; MDA-MB-231 with CXCR4+C5AR1; CXCL12 20 nM + C5a 0.03 nM; no C5AR1 inhibitor [1]: 118 nM
IC50 of Ca2+ response; MDA-MB-231 with CXCR4+CALCR; CXCL12 20 nM + calcitonin 100 nM; + CT-(8-32) (salmon) 10 µM [1]: 15.6 nM
IC50 of Ca2+ response; MDA-MB-231 with CXCR4+CALCR; CXCL12 20 nM + calcitonin 100 nM; no CALCR inhibitor [1]: 1040 nM
Substance: BKT140 (peptide)

IC50 of Ca2+ response; MDA-MB-231 expressing CXCR4+ADRB2; + carvedilol 10 µM; CXCL12 20 nM + salmeterol 1 µM [1]: 0.02 nM
IC50 of Ca2+ response; MDA-MB-231 expressing CXCR4+ADRB2; no carvedilol; CXCL12 20 nM + salmeterol 1 µM [1]: 17.8 nM
IC50 of Ca2+ response; MDA-MB-231 expressing CXCR4 alone; CXCL12 20 nM + salmeterol 1 µM [1]: 23.9 nM
fold decrease of the IC50 of Ca2+ response in CXCR4-ADRB2 cells on co-treatment with carvedilol [1]: 890 fold
Substance: TZ14011 (peptide)

IC50 of Ca2+ response; MDA-MB-231 expressing CXCR4+ADRB2; + carvedilol 10 µM; CXCL12 20 nM + salmeterol 1 µM [1]: 2.78 nM
IC50 of Ca2+ response; MDA-MB-231 expressing CXCR4+ADRB2; no carvedilol; CXCL12 20 nM + salmeterol 1 µM [1]: 13.9 nM
IC50 of Ca2+ response; MDA-MB-231 expressing CXCR4 alone; CXCL12 20 nM + salmeterol 1 µM [1]: 80.2 nM
Substance: 12G5 (antibody)

BiFC score [2]: 44
Substance: CCR5-VC, P51681 1-352 (receptor; other documents disagree on this pair)
